Measurements published in publication PMC5483177 (Cell reports, 2016).
Changes are numbered by the printed parent chain. Names may count otherwise. Read-outs that look alike come from different tables or passages of the source.

B1: CPS-6(H148A) (residues 63-305), His-tagged (enzyme, C. elegans, UniProt Q95NM6 63-305, looked up)
chain: PSRSAEIMKHGYPGFTNVRTYEDFVLSYDYKTRTAHWVCEHLTPERLKHAEGVDRKLCEFKPDITFPQKFLSQNTDYKCSGFDRGALAAAGNHRKSQLAVDQTFYLSNMSPQVGRGFNRDKWNDLEMHCRRVAKKMINSYIITGPLYLPKLEGDGKKYIKYQVIGDNNVAVPTHFFKVALFEVTPGKFELESYILPNAVIEDTVEISKFHVPLDAVERSAGLEIFARLDPKSIVKENGAKKGG
B2: wild-type CPS-6 (residues 63-305), His-tagged (enzyme, C. elegans, UniProt Q95NM6 63-305, looked up)
chain: B1 chain with A86H
B3: WAH-1 (residues 214 to 700), His-tagged (domain or fragment, C. elegans, UniProt Q9U229 214-700, looked up)
chain: SEQQSMKPSESTEENTTTTSADGLLHCEYVIIGSGTAAYYASLSIRAKQAEAKVLMIGEEPELPYNRPPLSKELWWYGDETSATKLAYTPLSGKKRDIFYEVDGFFVSPEDLPKAVHGGVALLRGRKAVKICEEDKKVILEDGTTIGYDKLLIATGVRPKKEQVFEEASEEAKQKITYFHYPADFKRVERGLADKSVQKVTIIGNGLLASELSYSIKRKYGENVEVHQVFEEKYPAEDILPEHIAQKSIEAIRKGGVDVRAEQKVEGVRKCCKNVVLKLSDGSELRTDLVVVATGEEPNSEIIEASGLKIDEKLGGVRADKCLKVGENVWAAGAIATFEDGVLGARRVSSWENAQISGRLAGENMATAAADGKSEGKAFWYQPSFFTKFAPHLHINAIGKCDSSLETVSVHAEPDKDTPLEKAVVFYKSKEDGSIVGVLLLNVFGPSLDVARRIIDDRKKVDEYKEIAKLFPLYDPVKSDEDDAKSA

Key:
SEC [1] = target: the molecule itself; assay: SEC
[2] = target: B3; assay: other fluorescence titration
[3] = target: B1; assay: other fluorescence titration
SEC [4] = target: the molecule itself; assay: SEC; remark: listed apart in the source

Kd [2] [nM] | stoichiometry N [3] | Binder | stoichiometry N (SEC [1]) | stoichiometry N (SEC [4])
69.8 ± 2.8 | – | B1 | 2 | –
– | – | B2 | 2 | –
– | 1 | B3 | – | 2
